Consider 51 variants from the Human Domainome abundance scans (Beltran et al. 2025).

± gives the uncertainty stated by the source.

B1: Homeobox protein SIX3, residues 212 to 262; numbered along this chain, O95343 (parent)
chain: CFKERTRSLLREWYLQDPYPNPSKKRELAQATGLTPTQVGNWFKNRRQRDR

In this data set the parent is B1. Put plainly: abundance fitness (aPCA) (normalised: wild type 0, dead -1); higher = more abundant; growth selection in yeast, the domain comes from the species named. The note with it: Homo sapiens.
For CFKERTRSLFREWYLQDPYPNPSKKRELAQATGLTPTQVGNWFKNRRQRDR [L10F], the abundance fitness is -0.824 ± 0.2.

CFKERTRSLQREWYLQDPYPNPSKKRELAQATGLTPTQVGNWFKNRRQRDR [L10Q]: the abundance fitness was -0.972 ± 0.15.

With CFKERTRSLHREWYLQDPYPNPSKKRELAQATGLTPTQVGNWFKNRRQRDR [L10H], the abundance fitness is -0.868 ± 0.16.

With CFKERTRSLLREWALQDPYPNPSKKRELAQATGLTPTQVGNWFKNRRQRDR [Y14A], the abundance fitness is -0.896 ± 0.059.

On to CFKERTRKLLREWYLQDPYPNPSKKRELAQATGLTPTQVGNWFKNRRQRDR [S8K], for which the abundance fitness is 0.048 ± 0.061.

As for CFKERTRSLLREEYLQDPYPNPSKKRELAQATGLTPTQVGNWFKNRRQRDR [W13E], the abundance fitness was -0.078 ± 0.056.

As to CFKERTRSLLREIYLQDPYPNPSKKRELAQATGLTPTQVGNWFKNRRQRDR [W13I], the abundance fitness was -0.153 ± 0.13.

For the variant CFKERTRSLLREQYLQDPYPNPSKKRELAQATGLTPTQVGNWFKNRRQRDR [W13Q], the abundance fitness was found to be 0.026 ± 0.052.

For the variant CFKERTRSLLRELYLQDPYPNPSKKRELAQATGLTPTQVGNWFKNRRQRDR [W13L], the abundance fitness was -0.139 ± 0.076.

As for CFKERTRSLLRECYLQDPYPNPSKKRELAQATGLTPTQVGNWFKNRRQRDR [W13C], the abundance fitness is -0.08 ± 0.059.

Consider CFKERTRSLLREPYLQDPYPNPSKKRELAQATGLTPTQVGNWFKNRRQRDR [W13P], for which the abundance fitness was -0.747 ± 0.16.

On to CFKERTRSLLREAYLQDPYPNPSKKRELAQATGLTPTQVGNWFKNRRQRDR [W13A], for which the abundance fitness was determined as 0.015 ± 0.06.

In the case of CFKERTRSLLREHYLQDPYPNPSKKRELAQATGLTPTQVGNWFKNRRQRDR [W13H], the abundance fitness is -0.338 ± 0.15.

Regarding CFKERTRSLLREYYLQDPYPNPSKKRELAQATGLTPTQVGNWFKNRRQRDR [W13Y], the abundance fitness was -0.007 ± 0.056.

With CFKERTRSLLREMYLQDPYPNPSKKRELAQATGLTPTQVGNWFKNRRQRDR [W13M], the abundance fitness was 0.012 ± 0.091.

Turning to CFKERTRSLLREDYLQDPYPNPSKKRELAQATGLTPTQVGNWFKNRRQRDR [W13D], the abundance fitness was -0.527 ± 0.12.

Consider CFKERTRSLLREKYLQDPYPNPSKKRELAQATGLTPTQVGNWFKNRRQRDR [W13K], for which the abundance fitness was -0.399 ± 0.12.

For the variant CFKERTRSLLREVYLQDPYPNPSKKRELAQATGLTPTQVGNWFKNRRQRDR [W13V], the abundance fitness was -0.075 ± 0.052.

As for CFKERTRSLLRENYLQDPYPNPSKKRELAQATGLTPTQVGNWFKNRRQRDR [W13N], the abundance fitness amounted to 0.097 ± 0.081.

Consider CFKERTRSLLREFYLQDPYPNPSKKRELAQATGLTPTQVGNWFKNRRQRDR [W13F], for which the abundance fitness is -0.545 ± 0.2.

As to CFKERTRSLLRETYLQDPYPNPSKKRELAQATGLTPTQVGNWFKNRRQRDR [W13T], the abundance fitness is -0.066 ± 0.072.

In the case of CFKERTRSLLRESYLQDPYPNPSKKRELAQATGLTPTQVGNWFKNRRQRDR [W13S], the abundance fitness is -0.069 ± 0.079.

For CFKERTMSLLREWYLQDPYPNPSKKRELAQATGLTPTQVGNWFKNRRQRDR [R7M], the abundance fitness was -0.128 ± 0.11.

For the variant CFKERTLSLLREWYLQDPYPNPSKKRELAQATGLTPTQVGNWFKNRRQRDR [R7L], the abundance fitness was -0.272 ± 0.096.

Turning to CFKERTVSLLREWYLQDPYPNPSKKRELAQATGLTPTQVGNWFKNRRQRDR [R7V], the abundance fitness was -0.03 ± 0.043.

For the variant CFKERTGSLLREWYLQDPYPNPSKKRELAQATGLTPTQVGNWFKNRRQRDR [R7G], the abundance fitness was -0.261 ± 0.075.

For CFKERTPSLLREWYLQDPYPNPSKKRELAQATGLTPTQVGNWFKNRRQRDR [R7P], the abundance fitness is -0.702 ± 0.18.

On to CFKERTYSLLREWYLQDPYPNPSKKRELAQATGLTPTQVGNWFKNRRQRDR [R7Y], for which the abundance fitness stood at 0.033 ± 0.15.

Turning to CFKERTSSLLREWYLQDPYPNPSKKRELAQATGLTPTQVGNWFKNRRQRDR [R7S], the abundance fitness was found to be 0.006 ± 0.078.

Turning to CFKERTNSLLREWYLQDPYPNPSKKRELAQATGLTPTQVGNWFKNRRQRDR [R7N], the abundance fitness amounted to 0.188 ± 0.15.

With CFKERTTSLLREWYLQDPYPNPSKKRELAQATGLTPTQVGNWFKNRRQRDR [R7T], the abundance fitness was -0.403 ± 0.2.

As for CFKERTQSLLREWYLQDPYPNPSKKRELAQATGLTPTQVGNWFKNRRQRDR [R7Q], the abundance fitness was -0.137 ± 0.2.

On to CFKERTISLLREWYLQDPYPNPSKKRELAQATGLTPTQVGNWFKNRRQRDR [R7I], for which the abundance fitness stood at 0.083 ± 0.19.

For CFKERTWSLLREWYLQDPYPNPSKKRELAQATGLTPTQVGNWFKNRRQRDR [R7W], the abundance fitness was -0.091 ± 0.12.

On to CFKERTHSLLREWYLQDPYPNPSKKRELAQATGLTPTQVGNWFKNRRQRDR [R7H], for which the abundance fitness came out at 0.238 ± 0.49.

For the variant CFKERTRSLLRKWYLQDPYPNPSKKRELAQATGLTPTQVGNWFKNRRQRDR [E12K], the abundance fitness was -0.314 ± 0.12.

As to CFKERTRSLLRDWYLQDPYPNPSKKRELAQATGLTPTQVGNWFKNRRQRDR [E12D], the abundance fitness is -0.098 ± 0.072.

Consider CFKERTRSLLRMWYLQDPYPNPSKKRELAQATGLTPTQVGNWFKNRRQRDR [E12M], for which the abundance fitness was -0.282 ± 0.066.

For the variant CFKERTRSLLRFWYLQDPYPNPSKKRELAQATGLTPTQVGNWFKNRRQRDR [E12F], the abundance fitness is -0.45 ± 0.16.

For CFKERTRSLLRAWYLQDPYPNPSKKRELAQATGLTPTQVGNWFKNRRQRDR [E12A], the abundance fitness was -0.256 ± 0.075.

Turning to CFKERTRSLLRNWYLQDPYPNPSKKRELAQATGLTPTQVGNWFKNRRQRDR [E12N], the abundance fitness is 0.23 ± 0.12.

In the case of CFKERTRSLLRYWYLQDPYPNPSKKRELAQATGLTPTQVGNWFKNRRQRDR [E12Y], the abundance fitness was -0.09 ± 0.041.

On to CFKERTRSLLRGWYLQDPYPNPSKKRELAQATGLTPTQVGNWFKNRRQRDR [E12G], for which the abundance fitness is -0.3 ± 0.042.

CFKERTRSLLRVWYLQDPYPNPSKKRELAQATGLTPTQVGNWFKNRRQRDR [E12V]: the abundance fitness was -0.608 ± 0.099.

CFKERTRSLLRPWYLQDPYPNPSKKRELAQATGLTPTQVGNWFKNRRQRDR [E12P]: the abundance fitness is -0.872 ± 0.12.

On to CFKERTRSLLRSWYLQDPYPNPSKKRELAQATGLTPTQVGNWFKNRRQRDR [E12S], for which the abundance fitness is -0.236 ± 0.083.

For CFKERTRSLLRCWYLQDPYPNPSKKRELAQATGLTPTQVGNWFKNRRQRDR [E12C], the abundance fitness was -0.84 ± 0.2.

Turning to CFKERTRSLLRLWYLQDPYPNPSKKRELAQATGLTPTQVGNWFKNRRQRDR [E12L], the abundance fitness is -0.426 ± 0.06.

Turning to CFKERTRSLLRTWYLQDPYPNPSKKRELAQATGLTPTQVGNWFKNRRQRDR [E12T], the abundance fitness is -0.285 ± 0.056.

Regarding CFKERTRSLLRWWYLQDPYPNPSKKRELAQATGLTPTQVGNWFKNRRQRDR [E12W], the abundance fitness was -0.185 ± 0.11.

Take CFKERTRSLLRIWYLQDPYPNPSKKRELAQATGLTPTQVGNWFKNRRQRDR [E12I]: the abundance fitness is -0.618 ± 0.15.
